For the assay, the target named is T1, FcγRIIIa (human, UniProt P08637 17-208).
T1 construct: extracellular domain; also called 3a; FcγRIIIa extracellular domain
The assay is described as follows: SPR (Biacore).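 Also: antibody variants captured on an SPR sensor chip, with FcγRIIIa passed over as analyte in HBS-EP+ buffer at 25 °C.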

The record followed here is patent US20260167699A1 (Chugai, published 2026).

T1 sequence (P08637 other isoform, or with tags, fused parts or gaps): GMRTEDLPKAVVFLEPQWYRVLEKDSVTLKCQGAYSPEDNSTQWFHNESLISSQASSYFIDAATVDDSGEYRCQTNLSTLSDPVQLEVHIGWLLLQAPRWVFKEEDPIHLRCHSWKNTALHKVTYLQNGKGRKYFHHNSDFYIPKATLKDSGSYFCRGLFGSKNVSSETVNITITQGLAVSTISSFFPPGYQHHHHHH

B1: GpH7-A5/GpH7-B3 variant K334_01G/GpL16-k0 (antibody, human IgG1, kappa)
heavy 1: not shown
heavy 2: not shown
light: DIVMTQSPLSLPVTPGEPASISCQASESLVHSNRNTYLHWYLQKPGQSPQLLIYKVSNRFSGVPDRFSGSGSGTDFTLKISRVEAEDVGVYYCSQNTHVPPTFGQGTKVEIERTVAAPSVFIFPPSDEQLKSGTASVVCLLNNFYPREAKVQWKVDNALQSGNSQESVTEQDSKDSTYSLSSTLTLSKADYEKHKVYACEVTHQGLSSPVTKSFNRGEC
notes: copies: 1 + 1 + 2
With B1, the “He/Con 3a” value was 125 % of GpH7-A5/GpH7-B3/GpL16-k0.

B2: GpH7-A5/GpH7-B3 variant L234_10E/GpL16-k0 (antibody, human IgG1, kappa)
heavy 1: not shown
heavy 2: not shown
light: B1 light
notes: copies: 1 + 1 + 2
Take B2: the “He/Con 3a” value is 111 % of GpH7-A5/GpH7-B3/GpL16-k0.

B3: GpH7-A5/GpH7-B3 variant L234_02A/GpL16-k0 (antibody, human IgG1, kappa)
heavy 1: not shown
heavy 2: not shown
light: B1 light
notes: copies: 1 + 1 + 2
Take B3: the “He/Con 3a” value is 69.7 % of GpH7-A5/GpH7-B3/GpL16-k0.

B4: GpH7-A5/GpH7-B3 variant K326_10E/GpL16-k0 (antibody, human IgG1, kappa)
heavy 1: not shown
heavy 2: not shown
light: B1 light
notes: copies: 1 + 1 + 2
B4: the “He/Con 3a” value was 138 % of GpH7-A5/GpH7-B3/GpL16-k0.

B5: GpH7-A5/GpH7-B3 variant L234_05P/GpL16-k0 (antibody, human IgG1, kappa)
heavy 1: not shown
heavy 2: not shown
light: B1 light
notes: copies: 1 + 1 + 2
With B5, the “He/Con 3a” value was 85.1 % of GpH7-A5/GpH7-B3/GpL16-k0.

B6: GpH7-A5/GpH7-B3 variant L234_13S/GpL16-k0 (antibody, human IgG1, kappa)
heavy 1: not shown
heavy 2: not shown
light: B1 light
notes: copies: 1 + 1 + 2
In the case of B6, the “He/Con 3a” value was 68.1 % of GpH7-A5/GpH7-B3/GpL16-k0.

B7: GpH7-A5/GpH7-B3 variant K326_04F/GpL16-k0 (antibody, human IgG1, kappa)
heavy 1: not shown
heavy 2: not shown
light: B1 light
notes: copies: 1 + 1 + 2
With B7, the “He/Con 3a” value was 114 % of GpH7-A5/GpH7-B3/GpL16-k0.

B8: GpH7-A5/GpH7-B3 variant K334_12R/GpL16-k0 (antibody, human IgG1, kappa)
heavy 1: not shown
heavy 2: not shown
light: B1 light
notes: copies: 1 + 1 + 2
Consider B8, for which the “He/Con 3a” value was 93.5 % of GpH7-A5/GpH7-B3/GpL16-k0.

B9: GpH7-A5/GpH7-B3 variant K326_02A/GpL16-k0 (antibody, human IgG1, kappa)
heavy 1: not shown
heavy 2: not shown
light: B1 light
notes: copies: 1 + 1 + 2
As to B9, the “He/Con 3a” value was 130 % of GpH7-A5/GpH7-B3/GpL16-k0.

B10: GpH7-A5/GpH7-B3 variant L234_03V/GpL16-k0 (antibody, human IgG1, kappa)
heavy 1: not shown
heavy 2: not shown
light: B1 light
notes: copies: 1 + 1 + 2
With B10, the “He/Con 3a” value was 88.3 % of GpH7-A5/GpH7-B3/GpL16-k0.

B11: GpH7-A5/GpH7-B3 variant L234_18N/GpL16-k0 (antibody, human IgG1, kappa)
heavy 1: not shown
heavy 2: not shown
light: B1 light
notes: copies: 1 + 1 + 2
Take B11: the “He/Con 3a” value is 88.2 % of GpH7-A5/GpH7-B3/GpL16-k0.

B12: GpH7-A5/GpH7-B3 variant L234_15Y/GpL16-k0 (antibody, human IgG1, kappa)
heavy 1: not shown
heavy 2: not shown
light: B1 light
notes: copies: 1 + 1 + 2
For B12, the “He/Con 3a” value was 126 % of GpH7-A5/GpH7-B3/GpL16-k0.

B13: GpH7-A5/GpH7-B3 variant K326_09D/GpL16-k0 (antibody, human IgG1, kappa)
heavy 1: not shown
heavy 2: not shown
light: B1 light
notes: copies: 1 + 1 + 2
As to B13, the “He/Con 3a” value is 148 % of GpH7-A5/GpH7-B3/GpL16-k0.

B14: GpH7-A5/GpH7-B3 variant K334_06M/GpL16-k0 (antibody, human IgG1, kappa)
heavy 1: not shown
heavy 2: not shown
light: B1 light
notes: copies: 1 + 1 + 2
Turning to B14, the “He/Con 3a” value is 149 % of GpH7-A5/GpH7-B3/GpL16-k0.

B15: GpH7-A5/GpH7-B3 variant K326_06M/GpL16-k0 (antibody, human IgG1, kappa)
heavy 1: not shown
heavy 2: not shown
light: B1 light
notes: copies: 1 + 1 + 2
For the molecule B15, the “He/Con 3a” value is 127 % of GpH7-A5/GpH7-B3/GpL16-k0.

B16: GpH7-A5/GpH7-B3 variant K326_18N/GpL16-k0 (antibody, human IgG1, kappa)
heavy 1: not shown
heavy 2: not shown
light: B1 light
notes: copies: 1 + 1 + 2
With B16, the “He/Con 3a” value is 134 % of GpH7-A5/GpH7-B3/GpL16-k0.

B17: GpH7-A5/GpH7-B3 variant K334_14T/GpL16-k0 (antibody, human IgG1, kappa)
heavy 1: not shown
heavy 2: not shown
light: B1 light
notes: copies: 1 + 1 + 2
For the molecule B17, the “He/Con 3a” value is 146 % of GpH7-A5/GpH7-B3/GpL16-k0.

B18: GpH7-A5/GpH7-B3 variant L234_06M/GpL16-k0 (antibody, human IgG1, kappa)
heavy 1: not shown
heavy 2: not shown
light: B1 light
notes: copies: 1 + 1 + 2
Turning to B18, the “He/Con 3a” value is 82.9 % of GpH7-A5/GpH7-B3/GpL16-k0.

B19: GpH7-A5/GpH7-B3 variant K334_20W/GpL16-k0 (antibody, human IgG1, kappa)
heavy 1: not shown
heavy 2: not shown
light: B1 light
notes: copies: 1 + 1 + 2
On to B19, for which the “He/Con 3a” value is 132 % of GpH7-A5/GpH7-B3/GpL16-k0.

B20: GpH7-A5/GpH7-B3 variant L234_09D/GpL16-k0 (antibody, human IgG1, kappa)
heavy 1: not shown
heavy 2: not shown
light: B1 light
notes: copies: 1 + 1 + 2
As for B20, the “He/Con 3a” value is 113 % of GpH7-A5/GpH7-B3/GpL16-k0.

B21: GpH7-A5/GpH7-B3 variant K326_13S/GpL16-k0 (antibody, human IgG1, kappa)
heavy 1: not shown
heavy 2: not shown
light: B1 light
notes: copies: 1 + 1 + 2
For B21, the “He/Con 3a” value was 118 % of GpH7-A5/GpH7-B3/GpL16-k0.

B22: GpH7-A5/GpH7-B3 variant K334_19Q/GpL16-k0 (antibody, human IgG1, kappa)
heavy 1: not shown
heavy 2: not shown
light: B1 light
notes: copies: 1 + 1 + 2
Consider B22, for which the “He/Con 3a” value was 140 % of GpH7-A5/GpH7-B3/GpL16-k0.

B23: GpH7-A5/GpH7-B3 variant K334_03V/GpL16-k0 (antibody, human IgG1, kappa)
heavy 1: not shown
heavy 2: not shown
light: B1 light
notes: copies: 1 + 1 + 2
For the molecule B23, the “He/Con 3a” value was 154 % of GpH7-A5/GpH7-B3/GpL16-k0.

B24: GpH7-A5/GpH7-B3 variant L234_19Q/GpL16-k0 (antibody, human IgG1, kappa)
heavy 1: not shown
heavy 2: not shown
light: B1 light
notes: copies: 1 + 1 + 2
As for B24, the “He/Con 3a” value is 77.1 % of GpH7-A5/GpH7-B3/GpL16-k0.

B25: GpH7-A5/GpH7-B3 variant K334_18N/GpL16-k0 (antibody, human IgG1, kappa)
heavy 1: not shown
heavy 2: not shown
light: B1 light
notes: copies: 1 + 1 + 2
Regarding B25, the “He/Con 3a” value was 140 % of GpH7-A5/GpH7-B3/GpL16-k0.

B26: GpH7-A5/GpH7-B3 variant K326_05P/GpL16-k0 (antibody, human IgG1, kappa)
heavy 1: not shown
heavy 2: not shown
light: B1 light
notes: copies: 1 + 1 + 2
On to B26, for which the “He/Con 3a” value was 117 % of GpH7-A5/GpH7-B3/GpL16-k0.

B27: GpH7-A5/GpH7-B3 variant K326_14T/GpL16-k0 (antibody, human IgG1, kappa)
heavy 1: not shown
heavy 2: not shown
light: B1 light
notes: copies: 1 + 1 + 2
As for B27, the “He/Con 3a” value was 140 % of GpH7-A5/GpH7-B3/GpL16-k0.

B28: GpH7-A5/GpH7-B3 variant L234_16H/GpL16-k0 (antibody, human IgG1, kappa)
heavy 1: not shown
heavy 2: not shown
light: B1 light
notes: copies: 1 + 1 + 2
Turning to B28, the “He/Con 3a” value is 76.8 % of GpH7-A5/GpH7-B3/GpL16-k0.

B29: GpH7-A5/GpH7-B3 variant K334_09D/GpL16-k0 (antibody, human IgG1, kappa)
heavy 1: not shown
heavy 2: not shown
light: B1 light
notes: copies: 1 + 1 + 2
Consider B29, for which the “He/Con 3a” value is 164 % of GpH7-A5/GpH7-B3/GpL16-k0.
